According to US20080220446A1, “Method for Detecting and/or Removing Protein and/or Peptide Comprising a Cross-Beta Structure From an Aqueous Solution Comprising a Protein” (priority 2005, published 2008):

What was measured:
tPA [1] = target: T1, tPA (Homo sapiens, UniProt P00750); test: Plasminogen-activation assay (tPA activation, S-2251); assay type: biochemical; details: for tPA activating potential: Example 4, native, heat-denatured or alkylated preparation as labelled
Description: Plasmin (Pls) activity was assayed as described^16. Peptides and proteins that were tested for their stimulatory ability were regularly used at 100 μg ml^−1. […] Chromogenic substrate S-2251 (Chromogenix, Instrumentation Laboratory SpA, Milano, Italy) was used to measure Pls activity. Conversion of zymogen factor XII (#233490, Calbiochem, EMD Biosciences, Inc., San Diego, Calif.) to proteolytically active factor XII (factor XIIa) was assayed by measurement of the conversion of chromogenic substrate Chromozym-PK (Roche Diagnostics, Almere, The Netherlands) by kallikrein. Chromozym-PK was used at a concentration of 0.3 mM. Factor XII, human plasma prekallikrein (#529583, Calbiochem) and human plasma cofactor high-molecular weight kininogen (#422686, Calbiochem) were used at concentrations of 1 μg ml^−1. […] Assays were performed using microtiter plates (Costar, Cambridge, Mass., USA). Peptides and proteins were tested for their ability to activate factor XII. 150 μg ml^−1 kaolin, an established activator of factor XII was used as positive control and solvent (H2O) as negative control. The conversion of Chromozym-PK was recorded kinetically at 37° C. for at least 60 minutes. Assays were done in duplicate.
(§1) Formulated protein therapeutics were obtained from the local hospital pharmacy and were used as supplied by the manufacturers. […] Lyophilized therapeutics were dissolved according to the manufacturers recommendations. GH, zinc-insulin, Cealb and gelatin were stored at −20, 4, room temperature, 37 and 65° C. Other protein therapeutics were only kept at 4° C., and assayed for the presence of cross-β structure at shown time points. Enhancement in fluorescence of ThT and Congo red was measured with all formulated protein therapeutics. For this purpose, proteins were diluted to the indicated concentrations. […] Zinc-insulin was diluted tenfold in the activation assay, GH was diluted to a final concentration of 500 μg ml^−1. Activation of factor XII and prekallikrein by the therapeutics was tested in the chromogenic factor XII assay (see above). […] After coating, plates were blocked with Blocking Reagent (Roche Diagnostics, Almere, The Netherlands).
(§2) To prepare structurally altered ovalbumin (OVA) with amyloid cross-β structures, purified OVA (Sigma, A-7641, lot 071k7094) was heated to 85° C. One mg ml^−1 OVA in 67 mM NaPi buffer pH 7.0, 100 mM NaCl, was heated for two cycles in PCR cups in a PTC-200 thermal cycler (MJ Research, Inc., Waltham, Mass., USA). In each cycle, OVA was heated from 30 to 85° C. at a rate of 5° C./min. Native OVA (nOVA) and heat-denatured OVA (dOVA) were tested in the ThT fluorescence assay and in the Plg-activation assay. In the fluorescence assay and in the Plg-activation assay, 25 and 100 μg ml^−1 nOVA and dOVA were tested, respectively. TEM images of nOVA and dOVA were taken to check for the presence of large aggregates.
MSA (#126674, Calbiochem) was dissolved in 8 M urea, 100 mM Tris-HCl pH 8.2, at 10 mg ml^−1 final concentration. Dithiothreitol (DTT) was added to a final concentration of 10 mM. Air was replaced by N2 and the solution was incubated for 2 h at room temperature. Then, the solution was transferred to ice and iodoacetamide was added from a 1 M stock to a final concentration of 20 mM. […] Alkyl-MSA was dialyzed against H2O before use. […] In the ThT-fluorescence assay 25 μg ml^−1 nMSA and alkyl-MSA were tested, and in the Plg-activation assay 100 μg ml^−1 was tested. The presence of aggregates or fibrils was analyzed using TEM.
Lyophilized sterile glucagon was dissolved at 1 mg ml^−1 in H2O with 10 mM HCl. The solution was subsequently kept at 37° C. for 24 h, at 4° C. for 14 days and again at 37° C. for 9 days. […] TEM analysis was performed to assess the presence of large multimeric structures.

[2] = ThT fluorescence enhancement by biopharmaceuticals; assay type: physicochemical; details: +/− SD; five μL of protein therapeutic
Description: (§3) Fluorescence of ThT—protein/peptide adducts was measured as follows. […] Fluorescence was measured at 485 nm upon excitation at 435 nm. Background signals from buffer, buffer with ThT and protein/peptide solution without ThT were subtracted from corresponding measurements with protein solution incubated with ThT. Regularly, fluorescence of Aβ was used as a positive control, and fluorescence of FP10, a non-amyloid fibrin fragment^16, was used as a negative control. Fluorescence was measured in triplicate on a Hitachi F-4500 fluorescence spectrophotometer (Ltd., Tokyo, Japan).
(§4) β2-GPI was reduced and alkylated as follows. Sixhundredforty μl of β2-GPI stock was mixed with 640 μl of 8 M Urea (cooled solution) in 0.1 M Tris pH-8.2. The solution was degassed with N2 gas for approximately 6 minutes. From a 1 M DTT stock 12.8 μl was added to the solution, mixed and incubated for 3 hours at room temperature. A 1 M Iodoacetamide (Sigma; I-6125) was prepared, of which 25.6 μl was added to the β2-GPI reaction mixture. The solution was subsequently dialysed against PBS. […] Signals obtained with alkyl-β2gpi are compared with those obtained with native β2gpi starting material and with positive control acid/heat denatured amyloid-like misfolded γ-globulins.
(§5) Protein therapeutics were obtained from the local hospital pharmacy and analyzed within the expiry limits as stated by the manufacturers.
(§6) Fluorescence of Thioflavin T (ThT; Sigma T-3516, St. Louis, Mo., USA) and Congo red (CR; Aldrich Chemical Company Inc., Milwaukee, Wis., USA) was measured on a Hitachi F-4500 spectrophotometer at an excitation wavelength of 435 nm and emission wavelength of 485 nm for ThT and an excitation wavelength of 550 nm and emission wavelength of 595 nm for Congo red. […] Fluorescence was measured in triplicate. Background fluorescence of both protein in buffer and dye-solution were subtracted from the total fluorescence signal. Five μg/mL fibrillar amyloid-β(1-40) E22Q (Peptide Synthesis Facility of the Dutch Cancer Institute NKI, Amsterdam, The Netherlands) was used as a positive control in all fluorescence assays.

[3] = Thioflavin T fluorescence of protein solutions; assay type: physicochemical
Description: as §3, §1
ThT fluorescence of β2GPI was measured as follows. […] CL vesicles were prepared according to an established procedure. Briefly, CL was dried under a stream of nitrogen. The lipids were resuspended to a concentration of 10 mg ml^−1 in 25 mM Tris-HCl, pH 7.3, 150 mM NaCl by vigorous agitation, using a vortex. In the ThT fluorescence assay, fluorescence of β2GPI in buffer, of CL or DXS500k in buffer, of buffer and ThT alone, and of β2GPI-CL adducts and β2GPI-DXS500k adducts, with or without ThT, was recorded as described above (section ThT fluorescence). In addition, TEM images were recorded with CL, β2GPI from human plasma, with or without CL, and with recombinant β2GPI, as described^5.
as §2
MSA (#126674, Calbiochem) was dissolved in 8 M urea, 100 mM Tris-HCl pH 8.2, at 10 mg ml^−1 final concentration. Dithiothreitol (DTT) was added to a final concentration of 10 mM. Air was replaced by N2 and the solution was incubated for 2 h at room temperature. Then, the solution was transferred to ice and iodoacetamide was added from a 1 M stock to a final concentration of 20 mM. […] In the ThT-fluorescence assay 25 μg ml^−1 nMSA and alkyl-MSA were tested, and in the Plg-activation assay 100 μg ml^−1 was tested. The presence of aggregates or fibrils was analyzed using TEM. […]

tPA [4] = target: T1, tPA; test: tPA/plasminogen activation assay; assay type: biochemical; details: % of standardized positive control; 1:10 diluted samples
Description: as §4
Exiqon Peptide Immobilizer plates were blocked for 1 hour with PBS, 1% Tween20 and rinsed twice with distilled water. The conversion of the chromogenic substrate S-2251 (Chromogenix, Italy) by plasmin was kinetically measured at 37° C. on a Spectramax340 microplate reader at a wavelength of 405 nm. […] Denatured γ-globulins (100 μg/ml) with amyloid-like structure was used as reference and positive control. Lyophilized γ-globulins (Sigma, Mo., USA) were dissolved in a 1(:)1 volume ratio of 1,1,1,3,3,3-hexafluoro-2-propanol and trifluoro-acetic acid and subsequently dried under air. Dried γ-globulins was dissolved in H2O to a final concentration of 1 mg/ml and kept at room temperature for at least three days and subsequently stored at −20° C.
as §5

[5] = Stability testing of biopharmaceuticals under denaturing conditions; assay type: physicochemical; details: after exposure to harsh denaturing conditions (low pH or heat)
Description: For this purpose, 5 mg/mL Glucagon (Glucagen; Novo Nordisk Farma B. V., Alphen aan de Rijn, The Netherlands) was incubated at 37° C. in 0.01 M HCl for 48 hours. One mg/mL Etanercept (Enbrel; Wyeth Pharmaceuticals B. V., Hoofddorp, The Netherlands) in 67 mM sodium phosphate buffer, 100 mM NaCl pH 7.0 was gradually heated from 30° C. to 85° C. over a period of 12 minutes and afterwards cooled to 4° C. for 5 minutes, this treatment was repeated 4 times. Abciximab (Reopro; Centocor B. V., Leiden, The Netherlands) and Infliximab (Remicade; Schering-Plough B. V., Utrecht, The Netherlands) were incubated at 65° C. for 16 and 72 hours, respectively.

[6] = Congo red fluorescence enhancement by biopharmaceuticals; assay type: physicochemical; details: +/− SD; five μL of protein therapeutic
Description: Background signals from buffer, buffer with Congo red and protein/peptide solution without Congo red were subtracted from corresponding measurements with protein solution incubated with Congo red. Fluorescence was measured in triplicate on a Hitachi F-4500 fluorescence spectrophotometer (Ltd., Tokyo, Japan).
as §5, §6

tPA [7] = target: T1, tPA; test: tPA binding assay with immobilized biopharmaceuticals in an ELISA; details: coated 1:10, one-site binding model
Description: Plates were washed twice with Tris buffered saline pH 7.2 containing 0.1% Tween20 (TBST) and blocked with PBS containing 1% Tween20 for 1 hour at room temperature. […] Plates were washed five times with TBST and incubated with peroxidase labeled anti-mouse immunoglobulins (RAMPO; DAKOCytomation, Glostrup, Denmark) diluted 1:3000 in PBST for 30 minutes at room temperature. Plates were washed five times with PBS 0.1% Tween20, and stained with 100 μL/well of tetramethyl-benzidine (TMB) substrate (Biosource Europe, Nivelles, Belgium). The reaction was terminated with 50 μL/well of 2 M H2SO4 and substrate conversion was read at 450 nm on a Spectramax340 microplate reader. Curves were fitted with a one-site binding model (GraphPad Prism version 4.02 for Windows, Graphpad Software, Calif., USA) from which Kd and Bmax were determined.
as §5

tPA [8] = target: T1, tPA; test: tPA ELISA with coated protein therapeutics; assay type: binding; details: ELISA, stored at the recommended temperature of 4° C.
Description: as §1

[9] = target: T2, LRP cl-IV binding to BSA-AGE (Bos taurus, UniProt P02769); test: ELISA, interference with LRP cl-IV binding to BSA-AGE; parameters: species or system human; details: concentration series, 50 times diluted LRP cl-IV medium
T2 construct: made in house; host or cells: HEK293E/S (LRP cl-IV, culture supernatant)
T2 sequence (P02769 25-607): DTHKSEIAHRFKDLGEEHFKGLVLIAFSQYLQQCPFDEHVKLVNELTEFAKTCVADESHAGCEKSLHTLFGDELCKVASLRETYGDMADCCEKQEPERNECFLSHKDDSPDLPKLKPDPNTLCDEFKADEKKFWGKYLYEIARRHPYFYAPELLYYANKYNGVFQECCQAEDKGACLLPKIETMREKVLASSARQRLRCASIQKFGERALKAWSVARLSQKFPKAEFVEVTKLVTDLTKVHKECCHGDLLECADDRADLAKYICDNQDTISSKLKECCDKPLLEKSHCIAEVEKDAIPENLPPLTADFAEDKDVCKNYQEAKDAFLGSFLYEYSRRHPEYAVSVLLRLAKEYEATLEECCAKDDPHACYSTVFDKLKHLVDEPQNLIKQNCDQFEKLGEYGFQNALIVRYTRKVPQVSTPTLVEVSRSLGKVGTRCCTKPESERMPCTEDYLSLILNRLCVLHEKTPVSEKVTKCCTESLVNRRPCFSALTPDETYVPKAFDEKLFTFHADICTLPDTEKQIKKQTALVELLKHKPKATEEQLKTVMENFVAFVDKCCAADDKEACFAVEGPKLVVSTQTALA
Description: To test whether amyloid-like crossbeta structure binding compounds tPA, Congo red, Thioflavin T and Thioflavin S interfere with LRP cl-IV binding to BSA-AGE, concentration series of the potential inhibitory amyloid binding moieties were tested in the presence of 50 times diluted medium containing LRP cl-IV. The following inhibitors were used: tPA, Congo red, Thioflavin T (ThT) and Thioflavin S (ThS). As a control to tPA, K2P tPA, which lacks the amyloid-like misfolded protein binding finger domain, was included in the analyses. The influence of tPA and K2P tPA was tested in the presence of 10 mM ε-amino caproic acid to avoid binding of the kringle2 domain of tPA and K2P tPA to lysine- and arginine residues. Binding buffer and K2P tPA serve as negative controls in these inhibition studies. The concentration series was measured in triplicate, the values averaged and standard deviations calculated. Background signals obtained with buffer-coated wells were subtracted. Signals obtained with binding of LRP cluster IV to BSA-AGE was set arbitrarily to a reference binding of 100% and signals obtained with the concentration series of misfolded protein binding moieties and K2P tPA were calculated based on this set reference.

[10] = glucagon after heat-denaturation at 37° C. at low pH in HCl buffer

T1 sequence (P00750 36-562): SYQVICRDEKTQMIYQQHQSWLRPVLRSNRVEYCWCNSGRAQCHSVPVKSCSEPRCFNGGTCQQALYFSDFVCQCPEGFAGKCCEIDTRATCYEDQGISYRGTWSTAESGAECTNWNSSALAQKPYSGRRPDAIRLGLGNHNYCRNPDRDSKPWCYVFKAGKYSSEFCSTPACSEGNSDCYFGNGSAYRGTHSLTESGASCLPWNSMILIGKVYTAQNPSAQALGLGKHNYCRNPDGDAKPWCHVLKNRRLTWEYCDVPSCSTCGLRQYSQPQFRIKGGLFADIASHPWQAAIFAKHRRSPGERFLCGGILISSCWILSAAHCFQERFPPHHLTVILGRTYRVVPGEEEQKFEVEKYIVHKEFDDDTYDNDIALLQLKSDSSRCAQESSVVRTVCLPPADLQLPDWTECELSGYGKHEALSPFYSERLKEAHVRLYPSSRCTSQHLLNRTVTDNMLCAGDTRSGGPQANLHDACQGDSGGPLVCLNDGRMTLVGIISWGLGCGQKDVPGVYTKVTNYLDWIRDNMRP

Substance	Fluorescence ThT [2]	tPA activation Max. Activation (tPA [4])	amyloid-like properties (ThT-fluorescence and tPA activation) [5]	Fluorescence CR [6]	other results
Etanercept	23 +/− 3 a.u.	0%	amyloid-like properties are adopted		tPA activating potential (tPA [1]): some tPA activation; enhancement of ThT fluorescence ([3]; Example 4, native, heat-denatured or alkylated preparation as labelled): some ThT fluorescence enhancement
Glucagon: human glucagon (Glucagen, Novo Nordisk)	48 +/− 1 a.u.	11.25%	amyloid-like properties are adopted		tPA activating potential (tPA [1]): some tPA activating potential; tPA activation (tPA [1]; [10]): potent activator of tPA; enhancement of ThT fluorescence [3, 10]: enhanced ThT fluorescence to a large extent
Infliximab: human-murine chimeric monoclonal antibody (Remicade-infliximab)	19 +/− 1 a.u.	0%	amyloid-like properties are adopted	67 +/− 2 a.u.	
Insulin Aspart: rapid acting human insulin analogue (NovoRapid Flexpen, Novo Nordisk)	172 +/− 3 a.u.	70.93%		81 +/− 2 a.u.	tPA activation (tPA [1]; protein solutions stored at 4° C.): activated tPA to a lesser extent, but still significantly; tPA Binding Bmax (tPA [7]): 3.617 OD450 nm
Insulin Zn Suspension: recombinant human Zn2+-chelated insulin (Monotard, Novo Nordisk)	387 +/− 72 a.u.	17.44%		79 +/− 6 a.u.	tPA Binding Bmax (tPA [7]): 0.7558 OD450 nm; binding of tPA (tPA [8]): binding of tPA was established
Thioflavin S [ThS]					influence on binding of LRP cl-IV to BSA-AGE [9]: inhibit binding of LRP cl-IV to BSA-AGE to a large extent
heat/acid-denatured glucagon: glucagon kept at 37° C. in 10 mM HCl					presence of cross-β structure conformation ([3]; conclusion from ThT fluorescence, Plg-activation assay and TEM): comprise the cross-β structure conformation
